# PMC5085163
# Molecular target: transducin-like enhancer of split 1 (TLE1) (human (endogenous in synovial sarcoma and control cell lines and tumor tissue)) (UniProt Q04724)
# Assay: proximity ligation; Duolink In Situ Red kit on cultured cells fixed with 3% formaldehyde and permeabilized with 0.1% Triton X-100; rabbit anti-SS18 and mouse anti-TLE1 primary antibodies overnight at 4°C; nuclear foci per nucleus; also done after HDAC inhibitors, SXT1596 and siRNA/shRNA against SS18-SSX
# Chain of UniProt Q04724 (Q04724 whole entry): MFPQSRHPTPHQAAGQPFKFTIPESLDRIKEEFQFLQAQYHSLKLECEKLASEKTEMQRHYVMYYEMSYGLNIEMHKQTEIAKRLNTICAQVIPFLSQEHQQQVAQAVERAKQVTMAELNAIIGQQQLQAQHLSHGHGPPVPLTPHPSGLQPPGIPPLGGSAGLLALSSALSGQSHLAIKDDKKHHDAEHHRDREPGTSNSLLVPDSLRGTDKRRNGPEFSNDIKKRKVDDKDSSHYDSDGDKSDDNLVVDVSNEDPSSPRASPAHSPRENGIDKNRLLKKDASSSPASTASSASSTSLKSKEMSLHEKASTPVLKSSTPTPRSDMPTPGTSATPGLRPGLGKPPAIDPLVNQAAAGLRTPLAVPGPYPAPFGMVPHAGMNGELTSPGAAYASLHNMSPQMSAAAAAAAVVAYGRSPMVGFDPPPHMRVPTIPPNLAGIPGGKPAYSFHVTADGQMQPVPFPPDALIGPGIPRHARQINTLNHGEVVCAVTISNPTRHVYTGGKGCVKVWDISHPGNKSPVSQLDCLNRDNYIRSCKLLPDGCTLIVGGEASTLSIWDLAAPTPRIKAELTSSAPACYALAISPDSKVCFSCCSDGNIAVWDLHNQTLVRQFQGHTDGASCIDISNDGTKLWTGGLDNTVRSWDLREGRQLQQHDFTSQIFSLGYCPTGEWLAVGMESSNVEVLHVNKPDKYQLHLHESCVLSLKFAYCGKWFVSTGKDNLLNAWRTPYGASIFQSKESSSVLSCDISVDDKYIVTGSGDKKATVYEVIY
row,Substance,fold PLA signal over control cell lines
1,SS18-SSX1 fusion oncoprotein (natural protein),> 10 fold
2,SS18-SSX2 fusion oncoprotein (natural protein),> 10 fold
